Reference: patent publication US20240010721A1 (HARBOUR BIOMED SHANGHAI, published 2024)
Residue numbers refer to the chain shown, from its start.

B1: PR001361 (antibody, V domains shown)
VH: QVQLVQSGGGVVQPGRSLRLSCTASGFTFSRYGMLWVRQAPGKGLEWVAVAWYDGVSEDYADSVKGRFTISRDNSMNTLSLQMNSLRAEDTAVYYCAREQARSFDLWGRGTLVTVSS
VL: DIQLTQSPSTLSASVGDRVTITCRASQSINSWLAWYQQKPGKAPKLLIYKASSLESGVPSRFSGSGSGTEFTLTISSLQPDDFATYYCQQYKSYSPMYTFGQGTKVDIKR
notes: fully human IgG1, kappa
B2: PR001366 (antibody, V domains shown)
VH: QVQLVESGGGVVQPGRSLRLSCTASGFTFSSYGMHWVRQAPGKGLEWVAVKWYDGISQNFADSVKGRFTISRDNSKNTLYLQMNSLRAEDTAVYYCARDLARSFDIWGRGTLVTVSS
VL: B1 VL
notes: fully human IgG1, kappa
B3: PR001359 (antibody, human IgG1, kappa, V domains shown)
VH: QVQLVESGGGVVQPGRSLRLSCAASGFTFSTYGMHWVRQAPGKGLEWVAVTWYDGSDKDYADSVKGRFTISRDTSKNTLYLQMNSLRAEDTAVYYCAREQARSFDLWGRGTLVTVSS
VL: B1 VL with Q3V, L4M, I29V, S31N, D107E
notes: fully human IgG1, kappa
B4: PR001364 (antibody, human IgG1, kappa, V domains shown)
VH: B3 VH with Q1E, V5L, T31S, Y32F, T51I
VL: B1 VL with Q3V, L4M, S28T, S31N, K92N, D107E
notes: fully human IgG1, kappa; also called anti-ROR1 1015M3-D8 hIgG1; PR001364(WT)
B5: PR001355 (antibody, human IgG1, kappa, V domains shown)
VH: B3 VH with E6Q, V11L, R16G, T31S, T51I, D57N, A97V
VL: B1 VL with L4M, T10S, S28T, I29M, S31N, F83S, K92N, V106L, D107E
notes: fully human IgG1, kappa
B6: PR001369 (antibody, human IgG1, kappa, V domains shown)
VH: B3 VH with T31N, M34I, V50I, T51M, D57N, K58T, Y80F
VL: B1 VL with Q3V, L4M, S28T, S31N, K92N, D107E
notes: fully human IgG1, kappa; also called anti-ROR1 1015M3-H10 hIgG1; PR001369(WT)
B7: PR001356 (antibody, human IgG1, kappa, V domains shown)
VH: B3 VH with T31S, T51A, S56V, D57S, K58E, T74N, S75A
VL: B1 VL with Q3V, L4M, S31N, D107E
notes: fully human IgG1, kappa; also called anti-ROR1 1015M2-E6 hIgG1; PR001356(WT)
B8: PR001416 (antibody, human IgG1, kappa, V domains shown)
VH: B3 VH with T51I
VL: B1 VL with Q3V, L4M, S28T, S31N, K92N, D107E
notes: fully human IgG1, kappa
B9: PR001419 (antibody, V domains shown)
VH: B3 VH with T31S, V50I, T51I, S56I, D57S, D59N, T74M, K76N, L79V, R98K
VL: not shown
notes: fully human IgG1, kappa
B10: PR001418 (antibody, human IgG1, kappa, V domains shown)
VH: B3 VH with T31S, T51I
VL: B1 VL with Q3V, L4M, S28T, S31N, K92N, V106L, D107E
notes: fully human IgG1, kappa
B11: PR001415 (antibody, human IgG1, kappa, V domains shown)
VH: B3 VH with Q1E, T31N, Y32S, V50I, T51M, D57N
VL: B1 VL with Q3V, L4M, S28T, S31N, K92N, D107E
notes: fully human IgG1, kappa
B12: PR001417 (antibody, V domains shown)
VH: B3 VH with T28S, T31S, G33A, K43R, T51I, S56G, K58E, A61I, T74D
VL: B1 VL with I2V, Q3V, L4M, K92N, D107E
notes: fully human IgG1, kappa

What follows are binders tested against T1, human ROR1 (hROR1) on cells (human, UniProt Q01973 30-937) (assay: FACS, A549 cells).
T1 construct: whole, on cells; the cell line is named under assay; also called HEK293T-hROR1; 293T-hROR1
T1 sequence (Q01973 30-937): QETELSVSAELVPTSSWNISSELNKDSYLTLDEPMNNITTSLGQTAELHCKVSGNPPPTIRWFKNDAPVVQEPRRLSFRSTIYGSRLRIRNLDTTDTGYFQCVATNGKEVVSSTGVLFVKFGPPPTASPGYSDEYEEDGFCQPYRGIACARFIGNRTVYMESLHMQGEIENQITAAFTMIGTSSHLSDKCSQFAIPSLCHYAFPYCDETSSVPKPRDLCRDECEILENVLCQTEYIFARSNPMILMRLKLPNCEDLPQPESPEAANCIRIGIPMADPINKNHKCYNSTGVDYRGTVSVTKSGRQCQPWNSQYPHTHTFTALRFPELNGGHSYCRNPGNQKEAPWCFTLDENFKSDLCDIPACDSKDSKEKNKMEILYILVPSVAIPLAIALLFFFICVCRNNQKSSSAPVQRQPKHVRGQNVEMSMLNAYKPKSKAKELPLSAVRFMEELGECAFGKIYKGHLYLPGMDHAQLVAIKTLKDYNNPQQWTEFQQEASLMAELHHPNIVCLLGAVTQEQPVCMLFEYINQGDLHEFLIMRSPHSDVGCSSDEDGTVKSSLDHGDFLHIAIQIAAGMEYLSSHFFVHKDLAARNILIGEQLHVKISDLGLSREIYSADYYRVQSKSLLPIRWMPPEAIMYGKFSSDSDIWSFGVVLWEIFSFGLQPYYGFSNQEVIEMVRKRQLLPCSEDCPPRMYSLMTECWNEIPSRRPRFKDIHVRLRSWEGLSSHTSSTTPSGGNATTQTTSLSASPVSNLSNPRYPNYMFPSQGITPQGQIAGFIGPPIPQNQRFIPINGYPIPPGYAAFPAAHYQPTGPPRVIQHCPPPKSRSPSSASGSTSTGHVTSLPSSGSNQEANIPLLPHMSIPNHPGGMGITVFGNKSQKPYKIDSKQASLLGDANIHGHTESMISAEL
Description: (§1) The binding properties were characterized by FACS. The recombinant antibodies obtained above were serially diluted to 9 different concentrations and incubated for 1 h, and then determined for the binding ability with HEK293T-hROR1, CHO-K1-cynoROR1 and A549 cell lines (endogenously expressing ROR1), respectively. The secondary antibody was then incubated for 1 h. The results are shown in FIG. 4-6 and Table 7-2 below.

MAX(MFI) | Binder
4520 | B1
4750 | B2
3930 | B3
3960 | B4
4240 | B5
3890 | B6
4630 | B7

These binders were tested against T1, human ROR1 (hROR1) on cells (assay: FACS, Panc-1 cells).

MFI [MFI] | Binder
4960 | B4
6230 | B6
5590 | B7

The binders below were run against T1, human ROR1 (hROR1) on cells (assay: FACS, HEK293T-hROR1 cells).
Description: as §1

fold lower EC50 than reference PR000374 [fold] | Binder
10 | B8
10 | B1
10 | B2
10 | B9
10 | B3
10 | B4
10 | B5
10 | B10
10 | B6
10 | B11
10 | B7
10 | B12

What follows are binders tested against T1, human ROR1 (hROR1) on cells (assay: cell-based or functional assay).

Binder | ADCC Cytotoxicity (%), Donor 1, 1 nM [%] | ADCC Cytotoxicity (%), Donor 1, 10 nM [%] | ADCC Cytotoxicity (%), Donor 2, 1 nM [%] | ADCC Cytotoxicity (%), Donor 2, 10 nM [%]
B3 | 33.7 | 39.5 | 21.9 | 26.1
B5 | 25.7 | 29 | 14.1 | 14.2

Molecular target: T1, human ROR1 (hROR1) on cells
Experiment: FACS, HEK293T-hROR1 cells
Remark: another data set of the same source

MFI [MFI] | Binder
43100 | B4
43800 | B6
50900 | B7

Each binder was assayed against T2, cynomolgus ROR1 (cynoROR1) on CHO-K1 cells (cynomolgus, UniProt A0A2K5WTX7 30-937) (assay: FACS, CHO-K1-cynoROR1 cells).
T2 construct: whole, on cells; also called CHO-K1-cynoROR1; CHO-K1-cyROR1
Description: as §1

MAX(MFI) | Binder
27200 | B1
23300 | B2
27200 | B3
18200 | B4
30000 | B5
22200 | B6
29700 | B7

The binders below were run against T3, ROR1 (antigen of the KD determination and of the Octet dissociation measurement) (UniProt Q01973 30-403, limits assumed) (assay: Octet, antigen form not stated).
T3 sequence (Q01973 30-403 limits assumed): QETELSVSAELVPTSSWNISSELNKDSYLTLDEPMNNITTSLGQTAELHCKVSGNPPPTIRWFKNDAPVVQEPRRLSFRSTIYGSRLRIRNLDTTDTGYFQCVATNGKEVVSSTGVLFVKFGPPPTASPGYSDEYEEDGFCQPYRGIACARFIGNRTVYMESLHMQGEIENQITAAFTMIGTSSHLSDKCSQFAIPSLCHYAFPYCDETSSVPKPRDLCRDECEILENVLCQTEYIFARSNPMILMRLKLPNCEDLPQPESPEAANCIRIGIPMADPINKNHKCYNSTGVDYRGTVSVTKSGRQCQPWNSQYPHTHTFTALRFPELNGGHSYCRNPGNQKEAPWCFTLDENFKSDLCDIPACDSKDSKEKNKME

Response | koff [s⁻¹] | Binder
0.601 | 9.38e-05 | B4
0.288 | 0.00498 | B6
0.617 | 0.000152 | B7

Each binder was assayed against T4, hROR2ECD-his (human, UniProt Q01974 34-403) (assay: ELISA, plate coated with hROR2 ECD-his).
T4 construct: extracellular domain; bought, Acrobiosystems R02-H52E5; also called huROR2-his
T4 sequence (Q01974 34-403): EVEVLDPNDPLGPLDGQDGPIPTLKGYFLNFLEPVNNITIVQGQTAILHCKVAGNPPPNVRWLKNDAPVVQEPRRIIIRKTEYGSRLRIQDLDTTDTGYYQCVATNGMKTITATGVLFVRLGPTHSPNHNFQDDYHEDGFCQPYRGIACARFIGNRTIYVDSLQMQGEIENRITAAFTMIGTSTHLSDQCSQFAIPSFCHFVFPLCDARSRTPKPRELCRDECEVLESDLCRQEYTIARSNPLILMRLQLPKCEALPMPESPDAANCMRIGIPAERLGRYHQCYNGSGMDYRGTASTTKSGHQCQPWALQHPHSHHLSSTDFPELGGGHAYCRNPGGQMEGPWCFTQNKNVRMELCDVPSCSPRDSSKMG
Description: (§2) Screening by ELISA assay: 96-well plates (Corning 9018) were coated with 1 μg/mL hROR1 ECD-his/hROR2 ECD-his/mROR1 ECD-his proteins prepared with PBS in Example 1a above and incubated at 4° C. overnight. The liquid was then discarded, and the plates were washed 3 times with PBST, blocked with 5% milk for 2 h at room temperature, and washed 3 times with PBST. The taken supernatant was added at 100 μL/well, and the plates were incubated at room temperature for 1 h, followed by washing 3 times with PBST. 100 μL/well of secondary antibody (Sigma, Cat#: A8592) was added, the plates were incubated at room temperature for 1 h, and then washed. TMB was then added to the plates at 100 μL/well and incubated for 15 min at room temperature. Thereafter, the reaction was terminated and data were read.
(§3) a. Results of ELISA assay (the ELISA assay was performed according to the same procedures as in Example 2c, except that the added samples were recombinant antibodies and the secondary antibody was a-Fc (Genscript, Cat#: A01854))
The corresponding values in the table are the measured median fluorescence intensity (MFI).

binding result | Binder
no binding | B8
no binding | B1
no binding | B2
no binding | B9
no binding | B3
no binding | B4
no binding | B5
no binding | B10
no binding | B6
no binding | B11
no binding | B7
no binding | B12

What follows are binders tested against T5, Human ROR1-ECD-his (human, UniProt Q01973 30-406) (assay: ELISA, plate coated with hROR1 ECD-his).
T5 construct: extracellular domain; bought, Acrobiosystems RO1-H522y; also called hROR1-ECD-his; hROR1 ECD-his
T5 sequence (Q01973 30-406): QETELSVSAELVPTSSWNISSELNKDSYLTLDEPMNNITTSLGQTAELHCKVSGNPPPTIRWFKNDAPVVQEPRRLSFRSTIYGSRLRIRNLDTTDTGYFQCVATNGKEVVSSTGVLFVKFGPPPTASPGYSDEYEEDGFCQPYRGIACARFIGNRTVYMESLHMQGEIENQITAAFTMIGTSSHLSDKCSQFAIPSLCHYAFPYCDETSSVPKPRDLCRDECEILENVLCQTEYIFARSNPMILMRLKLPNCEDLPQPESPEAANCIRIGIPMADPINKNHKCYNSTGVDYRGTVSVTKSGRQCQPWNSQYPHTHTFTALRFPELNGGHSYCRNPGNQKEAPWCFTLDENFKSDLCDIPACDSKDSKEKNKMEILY
Description: as §2, §3

ELISA signal (called MFI) | Binder
2.45 | B8
2.28 | B1
2.24 | B2
2.44 | B9
2.39 | B3
2.38 | B4
2.54 | B5
2.42 | B10
2.48 | B6
2.61 | B11
2.38 | B7
2.38 | B12

Molecular target: T4, hROR2ECD-his
Experiment: ELISA, plate coated with hROR2 ECD-his
Remark: another data set of the same source
Description: as §2, §3

ELISA signal (called MFI) | Binder
0.0265 | B8
0.028 | B1
0.0305 | B2
0.025 | B9
0.038 | B3
0.024 | B4
0.0285 | B5
0.042 | B10
0.031 | B6
0.03 | B11
0.0305 | B7
0.027 | B12

The binders below were run against T3, ROR1 (antigen of the KD determination …) (assay: method not stated (conventional procedures)).

Kd [nM] | koff [s⁻¹] | kon [M⁻¹ s⁻¹] | Binder
1.27 | 0.000342 | 270000 | B8
1.83 | 0.00108 | 590000 | B1
1.67 | 0.00075 | 448000 | B2
3.01 | 0.00117 | 389000 | B9
2 | 0.000637 | 320000 | B3
1.2 | 0.000376 | 314000 | B4
0.839 | 0.000291 | 347000 | B5
1.45 | 0.000423 | 292000 | B10
1.69 | 0.000519 | 307000 | B6
1.53 | 0.000512 | 336000 | B11
0.81 | 0.000287 | 354000 | B7
14.9 | 0.00646 | 433000 | B12

The binders below were run against T1, human ROR1 (hROR1) on cells (assay: FACS, HEK293T-hROR1 cells; cytometer saturated).
Description: as §1

MAX(MFI) | Binder
262000 | B1
262000 | B2
262000 | B3
262000 | B4
262000 | B5
262000 | B6
262000 | B7

Each binder was assayed against T1, human ROR1 (hROR1) on cells (assay: flow cytometry (FACS) on HEK293T-hROR1 cells, antibody 0.01-100 nM, median fluorescence intensity).
Description: as §1

EC50 (read off the curve) [nM] | Binder
~2 | B8
~3 | B9
~3 | B10
~3 | B11
~3 | B12

Each binder was assayed against T2, cynomolgus ROR1 (cynoROR1) on CHO-K1 … (assay: flow cytometry (FACS) on CHO-K1-cynoROR1 cells, antibody 0.01-100 nM, median fluorescence intensity).
Description: as §1

EC50 (read off the curve) [nM] | Binder
~1 | B8
~0.7 | B9
~1 | B10
~0.9 | B11
~2 | B12

What follows are binders tested against T1, human ROR1 (hROR1) on cells (assay: flow cytometry (FACS) on A549 cells (endogenous ROR1), antibody 0.01-100 nM, median fluorescence intensity).
Description: as §1

EC50 (read off the curve) [nM] | Binder
~0.4 | B8
~0.2 | B9
~0.4 | B10
~0.4 | B11
~0.9 | B12
